As a reminder, the EC50 is the concentration at which the effect is half-maximal. A high value points to weaker potency. In general, EC50 (read off the curve) refers to the midpoint of the concentration-response curve. Low values mean higher potency in that assay, high ones lower potency in that assay.

Assay [1] deals with T1, human αvβ8 integrin on U251 cells (human, UniProt P06756 31-1048).
For assay [2], the target named is T1, human αvβ8 integrin on U251 cells. In words: cell-based or functional assay.
For assay [3] the target is unchanged. Nature of the assay: flow cytometry on U251 cells. A general note: Flow cytometry measures light scatter and fluorescence of single cells or particles in a stream.
The target in assay [4] is T2, mouse αvβ8 integrin on C8-S cells (mouse, UniProt P43406 31-1044; Q0VBD0 22-767).
T2 construct: Endogenous αvβ8 of C8-S mouse astrocyte cells; also called C8-S (mouse astrocyte); C8-S (mouse avb8)
T2 sequence (P43406 31-1044 limits assumed, chain 1 of 2): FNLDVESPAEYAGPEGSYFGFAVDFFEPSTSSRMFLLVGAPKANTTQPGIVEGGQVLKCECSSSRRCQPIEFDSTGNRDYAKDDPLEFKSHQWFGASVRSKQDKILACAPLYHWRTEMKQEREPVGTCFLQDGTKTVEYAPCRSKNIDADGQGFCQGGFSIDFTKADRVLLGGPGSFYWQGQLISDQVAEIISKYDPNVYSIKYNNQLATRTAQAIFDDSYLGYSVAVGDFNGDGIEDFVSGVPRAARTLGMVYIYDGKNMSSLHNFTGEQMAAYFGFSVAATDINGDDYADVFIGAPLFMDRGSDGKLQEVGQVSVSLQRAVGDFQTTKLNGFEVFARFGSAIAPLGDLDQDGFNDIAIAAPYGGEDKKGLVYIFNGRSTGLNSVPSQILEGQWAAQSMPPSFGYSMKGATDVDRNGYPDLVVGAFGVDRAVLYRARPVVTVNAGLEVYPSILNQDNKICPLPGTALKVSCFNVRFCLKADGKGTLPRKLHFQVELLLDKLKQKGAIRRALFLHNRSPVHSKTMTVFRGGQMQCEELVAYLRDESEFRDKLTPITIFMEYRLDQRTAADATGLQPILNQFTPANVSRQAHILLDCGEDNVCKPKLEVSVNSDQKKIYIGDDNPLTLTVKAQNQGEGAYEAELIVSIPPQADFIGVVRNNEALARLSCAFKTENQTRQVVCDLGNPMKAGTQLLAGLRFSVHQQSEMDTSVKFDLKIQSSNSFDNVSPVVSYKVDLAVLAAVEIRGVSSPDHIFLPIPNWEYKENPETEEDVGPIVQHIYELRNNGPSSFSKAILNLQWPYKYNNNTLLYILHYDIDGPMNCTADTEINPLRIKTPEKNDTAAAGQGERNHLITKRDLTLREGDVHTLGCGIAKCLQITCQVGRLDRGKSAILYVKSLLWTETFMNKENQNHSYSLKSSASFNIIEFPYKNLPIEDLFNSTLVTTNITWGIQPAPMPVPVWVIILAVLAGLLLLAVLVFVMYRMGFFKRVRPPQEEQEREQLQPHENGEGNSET
T2 sequence (Q0VBD0 22-767 limits assumed, chain 2 of 2): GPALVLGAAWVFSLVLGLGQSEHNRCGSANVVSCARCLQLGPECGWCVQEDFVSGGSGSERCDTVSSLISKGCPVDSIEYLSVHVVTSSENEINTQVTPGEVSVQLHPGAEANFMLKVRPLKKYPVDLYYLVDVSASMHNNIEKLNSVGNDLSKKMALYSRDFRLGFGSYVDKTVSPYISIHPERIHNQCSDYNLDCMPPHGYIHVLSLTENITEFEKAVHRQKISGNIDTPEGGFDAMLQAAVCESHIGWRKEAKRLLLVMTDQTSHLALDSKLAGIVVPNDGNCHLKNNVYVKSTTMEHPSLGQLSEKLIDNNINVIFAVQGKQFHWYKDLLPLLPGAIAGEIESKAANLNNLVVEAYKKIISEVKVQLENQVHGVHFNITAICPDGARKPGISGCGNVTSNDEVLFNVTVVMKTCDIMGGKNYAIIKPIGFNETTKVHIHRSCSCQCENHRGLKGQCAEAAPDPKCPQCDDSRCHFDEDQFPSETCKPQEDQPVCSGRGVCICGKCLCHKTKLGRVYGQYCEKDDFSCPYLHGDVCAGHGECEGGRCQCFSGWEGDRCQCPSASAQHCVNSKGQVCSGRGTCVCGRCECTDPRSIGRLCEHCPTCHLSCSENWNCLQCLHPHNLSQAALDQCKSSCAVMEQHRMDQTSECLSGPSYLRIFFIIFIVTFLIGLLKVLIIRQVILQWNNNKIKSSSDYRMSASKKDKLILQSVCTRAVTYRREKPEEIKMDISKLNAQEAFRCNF
In words: flow cytometry on C8-S cells. How it is done: (§1) 100,000 cells were incubated with a dilution series of the anti-αvβ8 or human IgG1_3 mut Isotype antibody for three to four hours on ice. The cells were spun down for five minutes at 300 g force. The cells were then washed three times with wash buffer (PBS+0.2% BSA) to remove excess unbound antibodies. After thorough washing, cells were incubated with Fab′2 anti-human Fc-PE (Invitrogen) or goat Fab′2 anti-mouse-APC (Jackson Labs) at 1:1000 dilution along with LIVE/DEAD fixable cell stain (Invitrogen) at 1:2000 to distinguish live cells. The whole content was incubated for 30 minutes on ice. After washing, the stained cells were analyzed on BD biosciences Fortessa flow cytometer (gated for live cells) using FlowJo analysis software. The mean fluorescence intensities (MFI) at different antibody concentrations were plotted for various antibodies.
(§2) The apparent-affinity of ADWA11 2.4 for U251 (human glioblastoma) or C8-S (mouse astrocyte) cells was also evaluated in a cell-binding assay, according to the methods as generally described herein. Briefly, cells were incubated with a serial dilution of ADWA11 2.4 for 4 hours on ice, followed by detection on bound antibody with an anti-human-PE secondary antibody, and analyzed by flow cytometry.

Assay [5] has as its target T2, mouse αvβ8 integrin on C8-S cells. In words: cell-based or functional assay.
Assay [6] deals with T3, recombinant human αvβ3 integrin (human, UniProt P06756 31-992; P05106 27-718).
T3 construct: Used in ELISA and immobilised on the Biacore chip; construct not described; also called hαvβ3; AVB3
T3 sequence (P06756 31-992 limits assumed, chain 1 of 2): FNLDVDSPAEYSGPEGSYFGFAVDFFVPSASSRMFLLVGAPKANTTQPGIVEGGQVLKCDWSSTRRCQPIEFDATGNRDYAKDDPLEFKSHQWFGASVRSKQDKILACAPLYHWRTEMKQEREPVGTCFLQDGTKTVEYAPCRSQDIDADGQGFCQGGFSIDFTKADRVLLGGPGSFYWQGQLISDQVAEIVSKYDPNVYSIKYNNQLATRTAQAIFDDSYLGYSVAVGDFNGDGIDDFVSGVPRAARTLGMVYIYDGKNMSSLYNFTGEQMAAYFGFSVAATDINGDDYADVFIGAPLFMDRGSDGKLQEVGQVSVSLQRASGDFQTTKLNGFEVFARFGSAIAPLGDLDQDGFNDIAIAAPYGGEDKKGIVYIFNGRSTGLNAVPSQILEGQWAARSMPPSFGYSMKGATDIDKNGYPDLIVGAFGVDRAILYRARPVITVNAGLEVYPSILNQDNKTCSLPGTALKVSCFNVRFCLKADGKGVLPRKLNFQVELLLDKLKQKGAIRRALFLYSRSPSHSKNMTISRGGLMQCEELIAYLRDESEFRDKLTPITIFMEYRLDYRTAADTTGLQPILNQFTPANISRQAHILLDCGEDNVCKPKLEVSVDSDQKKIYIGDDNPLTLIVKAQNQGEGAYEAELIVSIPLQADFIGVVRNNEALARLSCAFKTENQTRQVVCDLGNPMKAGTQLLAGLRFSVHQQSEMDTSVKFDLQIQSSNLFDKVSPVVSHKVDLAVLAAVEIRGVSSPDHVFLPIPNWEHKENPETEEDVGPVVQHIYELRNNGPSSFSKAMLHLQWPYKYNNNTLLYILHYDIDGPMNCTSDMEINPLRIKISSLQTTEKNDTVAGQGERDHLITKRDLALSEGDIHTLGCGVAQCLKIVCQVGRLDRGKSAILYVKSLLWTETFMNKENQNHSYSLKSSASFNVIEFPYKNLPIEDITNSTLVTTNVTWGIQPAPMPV
T3 sequence (P05106 27-718 limits assumed, chain 2 of 2): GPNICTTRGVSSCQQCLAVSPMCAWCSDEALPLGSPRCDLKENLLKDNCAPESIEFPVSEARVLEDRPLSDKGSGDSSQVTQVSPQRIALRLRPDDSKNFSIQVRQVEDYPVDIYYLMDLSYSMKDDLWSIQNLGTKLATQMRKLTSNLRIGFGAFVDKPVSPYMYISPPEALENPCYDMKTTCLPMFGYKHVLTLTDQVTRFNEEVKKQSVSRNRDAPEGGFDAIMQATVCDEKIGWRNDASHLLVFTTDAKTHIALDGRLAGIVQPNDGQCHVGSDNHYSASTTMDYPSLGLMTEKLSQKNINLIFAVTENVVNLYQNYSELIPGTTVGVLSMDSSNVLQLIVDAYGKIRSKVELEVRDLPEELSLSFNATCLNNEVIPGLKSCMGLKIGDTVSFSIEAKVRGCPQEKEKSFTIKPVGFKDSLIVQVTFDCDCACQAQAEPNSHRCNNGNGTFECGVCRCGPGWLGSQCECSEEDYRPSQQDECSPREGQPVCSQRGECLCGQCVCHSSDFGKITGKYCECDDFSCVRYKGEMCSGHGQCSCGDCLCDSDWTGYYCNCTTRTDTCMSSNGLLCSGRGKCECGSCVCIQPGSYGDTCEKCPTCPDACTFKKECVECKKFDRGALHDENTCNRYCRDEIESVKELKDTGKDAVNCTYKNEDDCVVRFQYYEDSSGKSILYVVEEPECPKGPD
In words: SPR (Biacore), recombinant integrin immobilised. How it is done: (§3) To evaluate the specificity of ADWA11 2.4, recombinant human αvβ6 and αvβ3 were immobilized on a Biacore chip and binding of the parental murine and humanized mAb variant of ADWA11 2.4 was determined.
(SPR reads the build-up and loss of mass on a sensor chip optically.)

The target in assay [7] is T4, recombinant human αvβ6 integrin (human, UniProt P06756 31-992; P18564 22-707).
T4 construct: Used in ELISA and immobilised on the Biacore chip; construct not described; also called hαvβ6; AVB6
T4 sequence (P06756 31-992 limits assumed, chain 1 of 2): as the sequence (P06756 31-992 limits assumed, chain 1 of 2) above
T4 sequence (P18564 22-707 limits assumed, chain 2 of 2): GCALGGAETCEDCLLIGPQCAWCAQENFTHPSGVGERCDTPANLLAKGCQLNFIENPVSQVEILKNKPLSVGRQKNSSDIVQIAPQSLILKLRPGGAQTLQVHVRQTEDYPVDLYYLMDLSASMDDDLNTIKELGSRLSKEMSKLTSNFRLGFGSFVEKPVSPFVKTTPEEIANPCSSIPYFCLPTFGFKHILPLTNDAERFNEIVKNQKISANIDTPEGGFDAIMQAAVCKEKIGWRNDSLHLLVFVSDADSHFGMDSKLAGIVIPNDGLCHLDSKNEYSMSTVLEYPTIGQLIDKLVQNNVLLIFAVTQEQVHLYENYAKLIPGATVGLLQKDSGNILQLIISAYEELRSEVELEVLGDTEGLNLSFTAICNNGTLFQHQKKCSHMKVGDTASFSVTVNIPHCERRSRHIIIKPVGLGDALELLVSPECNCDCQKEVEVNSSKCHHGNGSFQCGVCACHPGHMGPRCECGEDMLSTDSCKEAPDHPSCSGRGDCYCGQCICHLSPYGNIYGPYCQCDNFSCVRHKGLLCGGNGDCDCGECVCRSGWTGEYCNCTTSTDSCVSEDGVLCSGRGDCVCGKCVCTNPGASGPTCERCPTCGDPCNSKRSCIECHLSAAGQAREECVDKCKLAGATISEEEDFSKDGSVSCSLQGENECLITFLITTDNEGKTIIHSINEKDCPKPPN
Nature of the assay: SPR (Biacore), recombinant integrin immobilised. How it is done:
as §3

Assay [8] addresses T1, human αvβ8 integrin on U251 cells. Nature of the assay: flow cytometry on live U251 cells, 4 hours on ice, anti-human-PE secondary, n=3.
For assay [9], the target named is T5, human αvβ8 integrin on HEK293-F cells (human, UniProt P06756 31-1048; P26012 43-769).
T5 construct: whole, on cells; HEK293-F cells transiently expressing the full length beta subunit; also called HEK cells expressing αvβ8
Nature of the assay: flow cytometry, titration on HEK cells overexpressing human integrin β8, right panel. How it is done:
(§4) For cell-binding experiments with HEK293-F cells overexpressing human αvβ3, αvβ5, αvβ6, αvβ8. HEK293-F cells transiently expressing full length human integrin beta 3 (Accession No. NP_000203.2), human integrin beta 5 (Accession No. NP_002204.2), human integrin beta 6 (Accession No. NP_000879.2), or human integrin beta 8 (Accession No. NP_002205.1) were prepared using proprietary vectors and vendor provided protocols. Cells were harvested after 4 days and analyzed for integrin expression. To characterize Integrin αvβ3, αvβ5, αvβ6, αvβ8 expression 100,000 cells were incubated in the indicated commercially available or directly conjugated proprietary antibodies for 30 minutes, along with LIVE/DEAD fixable cell stain (Invitrogen) at 1:2000 to distinguish live cells. Cells were spun down for five minutes at 300 g force. The cells were then washed twice with wash buffer (PBS+0.2% BSA) to remove excess unbound antibodies and ananalysed on BD biosciences Fortessa flow cytometer
(§5) 100,000 cells were incubated with a dilution series of the anti-αvβ8 or human IgG1_3 mut Isotype antibody for three to four hours on ice. […] After washing, the stained cells were analyzed on BD biosciences Fortessa flow cytometer (gated for live cells) using FlowJo analysis software. The mean fluorescence intensities (MFI) at different antibody concentrations were plotted for various antibodies.

The target of assay [10] is T6, human αvβ3 integrin on HEK293-F cells (human, UniProt P06756 31-1048; P05106 27-788).
T6 construct: whole, on cells; HEK293-F cells transiently expressing the full length beta subunit; also called HEK cells expressing αvβ3
In words: flow cytometry, titration of ADWA11 2.4 on HEK cells overexpressing human integrin β3 (gMFI minus secondary), right panel. How it is done:
as §4, §5

Assay [11] deals with T7, human αvβ5 integrin on HEK293-F cells (human, UniProt P06756 31-1048; P18084 24-799).
T7 construct: whole, on cells; HEK293-F cells transiently expressing the full length beta subunit; also called HEK cells expressing αvβ5
Nature of the assay: flow cytometry, titration of ADWA11 2.4 on HEK cells overexpressing human integrin β5 (gMFI minus secondary), right panel. How it is done:
as §4, §5

For assay [12], the target named is T8, human αvβ6 integrin on HEK293-F cells (human, UniProt P06756 31-1048; P18564 22-788).
T8 construct: whole, on cells; HEK293-F cells transiently expressing the full length beta subunit; also called HEK cells expressing αvβ6
Nature of the assay: flow cytometry, titration of ADWA11 2.4 on HEK cells overexpressing human integrin β6 (gMFI minus secondary), right panel. How it is done: as §4, §5

In assay [13] the target is T1, human αvβ8 integrin on U251 cells. Nature of the assay: flow cytometry, IgG binding to U251 cells (MFI PE-A), left panel ADWA11_IgG_U251 cell binding; EC50 unit inferred, axis Log10 [mAb] nM.
The target of assay [14] is T2, mouse αvβ8 integrin on C8-S cells. Nature of the assay: flow cytometry, IgG binding to C8-S cells (MFI PE-A), right panel ADWA11_IgG_C8-S cell binding; EC50 unit inferred, axis Log10 [mAb] nM. How it is done: as §1, §2

B1: ADWA11 2.4 (IgG) (antibody, V domains shown)
VH: EVQLVESGGGLVQPGGSLRLSCAASGFNIKDYYMNWVRQAPGKGLEWVGWIDPDQGNTIYEPKFQGRFTISADTSKNSAYLQMNSLRAEDTAVYYCARRLLMDYWGQGTLVTVSS
VL: DIQMTQSPSSLSASVGDRVTITCRSTKSLSHFNGNTYLFWYQQKPGKAPKRLIYYMSSLASGVPSRFSGSGSGTDFTLTISSLQPEDFATYYCQQSLEYPFTFGGGTKVEIKR
notes: Human IgG1 effectorless (L234A, L235A, G237A), kappa; also called ADWA11 VH05-2/VK01(2.4); ADWA11_VH05-2_VK01(2.4)
Regarding B1, the IC50 (read off the curve) was 0.1 nM in assay [1] and about 0.2 nM in assay [5]. The same molecule had an IC50 in the TGFβ transactivation assay with U251 cells in [2] of 0.199 nM. Further, the EC50 in [3] worked out at 0.256 nM; in [4], 0.145 nM; in [8], 0.126 nM; in [13] it was 0.105 nM; in assay [14], 0.115 nM. The binding result is reported as “no binding” in [6]; “no binding” in assay [7]; “no binding (tested: 100 nM)” in assay [10]; “no binding (tested: 100 nM)” in [11]; “no binding (tested: 100 nM)” in assay [12]. In addition, the half-maximal effective concentration (EC50 (read off the curve)) in [9] was about 2 nM.

The record behind these values is patent US20200079855A1 (Pfizer, published 2020).
